Results on two molecules are retold here after publication PMC11297931 (2024).

Holding throughout (experiment): SPR
(In SPR one partner is held on a chip, and binding of the other changes the refractive index at the surface.)

Assay [1] deals with Cdk7(S164E)/Cyclin H binary complex (human, UniProt P50613 2-346; P51946 1-323, S164E, phosphothreonine at 170).
Assay [2] concerns the target Cdk7(S164A)/Cyclin H binary complex (human, UniProt P50613 2-346; P51946 1-323, S164A, phosphothreonine at 170).
Assay [3] addresses T1, doubly T-loop phosphorylated Cdk7/Cyclin H/Mat1_(230-309) ternary complex (human, UniProt P50613 2-346; P51946 1-323; P51948 230-309, phosphoserine at 164; phosphothreonine at 170 | M1 acetylated).
T1 chain 1: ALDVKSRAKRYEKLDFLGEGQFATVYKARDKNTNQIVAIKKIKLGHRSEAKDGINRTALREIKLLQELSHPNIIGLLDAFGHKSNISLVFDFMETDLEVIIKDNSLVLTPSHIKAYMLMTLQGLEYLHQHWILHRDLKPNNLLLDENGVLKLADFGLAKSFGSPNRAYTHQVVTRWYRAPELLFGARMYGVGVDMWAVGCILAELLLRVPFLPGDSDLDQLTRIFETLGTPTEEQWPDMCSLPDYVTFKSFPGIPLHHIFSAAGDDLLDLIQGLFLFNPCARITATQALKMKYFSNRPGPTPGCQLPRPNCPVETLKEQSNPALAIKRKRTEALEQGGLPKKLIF
T1 chain 2: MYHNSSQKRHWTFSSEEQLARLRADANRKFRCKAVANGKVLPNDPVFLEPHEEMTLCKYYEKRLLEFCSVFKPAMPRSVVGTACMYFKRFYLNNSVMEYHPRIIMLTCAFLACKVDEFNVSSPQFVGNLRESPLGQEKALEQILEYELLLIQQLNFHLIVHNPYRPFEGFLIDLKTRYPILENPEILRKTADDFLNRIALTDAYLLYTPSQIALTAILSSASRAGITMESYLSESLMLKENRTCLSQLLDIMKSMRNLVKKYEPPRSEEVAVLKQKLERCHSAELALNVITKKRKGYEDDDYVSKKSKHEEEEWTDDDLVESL
T1 chain 3: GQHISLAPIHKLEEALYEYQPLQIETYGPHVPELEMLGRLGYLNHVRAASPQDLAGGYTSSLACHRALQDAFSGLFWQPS

B1: MBP-Mat1_(230-309) (domain or fragment)
chain: GQHISLAPIHKLEEALYEYQPLQIETYGPHVPELEMLGRLGYLNHVRAASPQDLAGGYTSSLACHRALQDAFSGLFWQPS
In general, Kd refers to the equilibrium constant for the complex coming apart. On to B1, for which the values for the Kd in assay [1] and in assay [2] were 7.3 nM and 10.8 nM, respectively.

B2: VHH_(RD7-04), form for biochemical studies (VHH)
VHH: QVQLVESGGGLVQPGGSLRLSCVASGFTFKNFYMGWVRQAPDKGLEWVATINSGGEIQSYADSVKGRFTISRDNAKNTLYLQMNNLRPEDTAVYYCSKQSSTPAKGQGTQVTVSS
Take B2: binding in assay [3] was put at a Kd of 0.6 nM.
